# Experimental data published in article PMC9569990 (International Journal of Molecular Sciences, 2022).
# T1: Granulocyte colony-stimulating factor (human, UniProt P09919-2 31-204)
# T1 construct: Granulocyte colony-stimulating factor, human, UniProt P09919; No catalogue number (n/a); also called G-CSF; source: bought: Pharmstandard (Russia) (source E. coli)
# T1 sequence (looked up): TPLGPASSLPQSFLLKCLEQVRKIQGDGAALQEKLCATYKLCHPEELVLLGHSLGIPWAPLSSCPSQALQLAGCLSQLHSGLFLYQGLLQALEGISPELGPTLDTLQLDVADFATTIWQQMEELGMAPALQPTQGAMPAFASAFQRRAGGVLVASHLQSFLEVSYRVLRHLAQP
# T2: Interleukin-26 (human, UniProt Q9NPH9 22-171)
# T2 construct: Interleukin-26, human, UniProt Q9NPH9; see the manufacturer's catalogue number; also called IL-26; source: bought: R&D Systems (source E. coli)
# T2 sequence (looked up): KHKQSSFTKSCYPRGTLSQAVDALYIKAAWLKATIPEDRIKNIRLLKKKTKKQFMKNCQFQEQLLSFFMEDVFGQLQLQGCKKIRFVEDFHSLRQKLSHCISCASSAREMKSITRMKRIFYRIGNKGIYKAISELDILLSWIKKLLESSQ
# T3: Interleukin-3 (human, UniProt P08700 20-152)
# T3 construct: Interleukin-3, human, UniProt P08700; see the manufacturer's catalogue number; also called IL-3; source: bought: SCI-Store (Russia) (source CHO)
# T3 sequence (looked up): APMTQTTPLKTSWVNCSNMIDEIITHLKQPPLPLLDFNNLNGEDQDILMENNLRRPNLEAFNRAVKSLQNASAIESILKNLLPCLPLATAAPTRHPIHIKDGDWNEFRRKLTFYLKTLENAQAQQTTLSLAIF
# B1: Human S100P protein (recombinant, Ca^2+-loaded) (natural protein)
# chain: MTELETAMGMIIDVFSRYSGSEGSTQTLTKGELKVLMEKELPGFLQSGKDKDAVDKLLKDLDANGDAQVDFSEFIVFVAAITSACHKYFEKAGLK
# notes: S100P protein, human, recombinant; probably the whole 95-residue protein (surmise); also called wild-type S100P; WT S100P; source: E. coli, prepared as previously described [28]
# What was measured:
# Assay in all cases: SPR; cytokine immobilised on ProteOn GLH sensor chip by amine coupling (9,000-14,000 RU); S100P (wild type or mutant) as analyte, 62 nM-16 µM; 25 °C; 10 mM HEPES, 150 mM NaCl, 1 mM CaCl2, 0.05% TWEEN 20, pH 7.4; heterogeneous ligand model (two ligand populations), one-site model for IL-13; values averaged over analyte concentrations (n = 3-5)
# Conditions in all cases: both partners purified
# Thrombopoietin = target: T4, Thrombopoietin (human, UniProt P40225 22-353)
# T4 construct: Thrombopoietin, human, UniProt P40225; see the manufacturer's catalogue number; also called THPO; source: bought: SCI-Store (Russia) (source CHO)
# T4 sequence (P40225 22-353): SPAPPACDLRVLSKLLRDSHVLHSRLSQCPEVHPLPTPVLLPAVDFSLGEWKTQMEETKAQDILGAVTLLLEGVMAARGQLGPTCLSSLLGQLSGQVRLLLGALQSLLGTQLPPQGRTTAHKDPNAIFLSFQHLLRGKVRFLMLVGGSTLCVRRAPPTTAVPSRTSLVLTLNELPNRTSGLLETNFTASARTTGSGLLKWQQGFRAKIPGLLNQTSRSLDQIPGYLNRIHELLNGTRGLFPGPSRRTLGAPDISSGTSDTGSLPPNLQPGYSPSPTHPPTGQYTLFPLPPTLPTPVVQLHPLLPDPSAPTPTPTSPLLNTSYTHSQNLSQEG
# [1] = target: T1, Granulocyte colony-stimulating factor
# Growth hormone variant = target: T5, Growth hormone variant (human, UniProt P01242 27-217)
# T5 construct: Growth hormone variant, human, UniProt P01242; see the manufacturer's catalogue number; also called GH-V; source: bought: R&D Systems (source E. coli)
# T5 sequence (P01242 27-217, change not shown): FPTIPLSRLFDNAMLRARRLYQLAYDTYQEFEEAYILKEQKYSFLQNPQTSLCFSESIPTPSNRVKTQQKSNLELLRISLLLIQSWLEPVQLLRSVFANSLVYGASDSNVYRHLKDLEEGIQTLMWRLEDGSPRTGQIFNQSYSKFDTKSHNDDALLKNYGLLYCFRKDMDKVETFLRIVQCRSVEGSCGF
# Interleukin-26 = target: T2, Interleukin-26
# [2] = target: T6, Granulocyte-macrophage colony-stimulating factor (human, UniProt P04141 18-144)
# T6 construct: Granulocyte-macrophage colony-stimulating factor, human, UniProt P04141; see the manufacturer's catalogue number; also called GM-CSF; source: bought: PeproTech (source E. coli)
# T6 sequence (P04141 18-144): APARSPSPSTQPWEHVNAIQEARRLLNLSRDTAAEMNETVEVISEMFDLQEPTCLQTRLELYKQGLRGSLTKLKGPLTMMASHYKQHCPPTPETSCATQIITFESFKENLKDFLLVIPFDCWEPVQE
# Interleukin-3 = target: T3, Interleukin-3
# Interleukin-9 = target: T7, Interleukin-9 (human, UniProt P15248 19-144)
# T7 construct: Interleukin-9, human, UniProt P15248; see the manufacturer's catalogue number; also called IL-9; source: bought: PeproTech (source E. coli)
# T7 sequence (P15248 19-144): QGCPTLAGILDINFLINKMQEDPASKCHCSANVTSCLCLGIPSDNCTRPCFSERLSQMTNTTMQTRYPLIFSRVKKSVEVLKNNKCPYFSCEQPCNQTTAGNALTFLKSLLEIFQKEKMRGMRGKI
binder,measurement,setting,value
B1,"Kd1 (heterogeneous ligand model, population 1)",Thrombopoietin,834 pM
same,"Kd2 (heterogeneous ligand model, population 2)",Thrombopoietin,41.2 nM
same,"kd1 (heterogeneous ligand model, population 1)",Thrombopoietin,0.000409 s⁻¹
same,"kd2 (heterogeneous ligand model, population 2)",Thrombopoietin,0.00829 s⁻¹
same,"Kd1 (heterogeneous ligand model, population 1)",[1],213 nM
same,"Kd2 (heterogeneous ligand model, population 2)",[1],854 nM
same,"kd1 (heterogeneous ligand model, population 1)",[1],0.000315 s⁻¹
same,"kd2 (heterogeneous ligand model, population 2)",[1],0.0154 s⁻¹
same,"Kd1 (heterogeneous ligand model, population 1)",Growth hormone variant,1.04 µM
same,"Kd2 (heterogeneous ligand model, population 2)",Growth hormone variant,2.73 µM
same,"kd1 (heterogeneous ligand model, population 1)",Growth hormone variant,0.00177 s⁻¹
same,"kd2 (heterogeneous ligand model, population 2)",Growth hormone variant,0.0181 s⁻¹
same,"Kd1 (heterogeneous ligand model, population 1)",Interleukin-26,9.02 nM
same,"Kd2 (heterogeneous ligand model, population 2)",Interleukin-26,1.32 µM
same,"kd1 (heterogeneous ligand model, population 1)",Interleukin-26,0.000144 s⁻¹
same,"kd2 (heterogeneous ligand model, population 2)",Interleukin-26,0.00509 s⁻¹
same,"Kd1 (heterogeneous ligand model, population 1)",[2],245 nM
same,"Kd2 (heterogeneous ligand model, population 2)",[2],450 nM
same,"kd1 (heterogeneous ligand model, population 1)",[2],0.00113 s⁻¹
same,"kd2 (heterogeneous ligand model, population 2)",[2],0.0672 s⁻¹
same,"Kd1 (heterogeneous ligand model, population 1)",Interleukin-3,23.2 nM
same,"Kd2 (heterogeneous ligand model, population 2)",Interleukin-3,579 nM
same,"kd1 (heterogeneous ligand model, population 1)",Interleukin-3,0.000627 s⁻¹
same,"kd2 (heterogeneous ligand model, population 2)",Interleukin-3,0.00529 s⁻¹
same,"Kd1 (heterogeneous ligand model, population 1)",Interleukin-9,34.7 nM
same,"Kd2 (heterogeneous ligand model, population 2)",Interleukin-9,136 nM
same,"kd1 (heterogeneous ligand model, population 1)",Interleukin-9,0.000531 s⁻¹
same,"kd2 (heterogeneous ligand model, population 2)",Interleukin-9,0.017 s⁻¹
